Laboratory results: patent publication US6103514A, “Protease” (The University of Tokyo, priority 1997, dated 2000)

What was measured:
26·29 kDa protease = conditions: stated under Prior Art; cited from earlier work
[1] = Assay of protease activity with fluorescent peptidyl-MCA substrates; type: biochemical; conditions: for Hydrolysis of Z-Arg-Arg-MCA (in words): substrate Z-Arg-Arg-MCA
Experimental: Table 2 lists specific activities of 26·29 kDa protease, cathepsin B from flesh fly and cathepsin L from flesh fly to various substrates, which were measured in terms of their hydrolytic activities against the fluorescence-attached synthetic substrates. The numeral represents the mass of fluorescent synthetic substrate hydrolyzed by a unit weight of protease, or a specific activity of that enzyme. For the numerals of Table, one unit of activity is defined as a weight of enzyme necessary for hydrolyzing 1 μmol of substrate in 10 minutes. "ND" in Table represents no result because the test not being made. Sequence listing numbers for sequences in Table 2 are: SEQ ID NO:100 and SEQ ID NO:101.
Assay of enzymatic activity was performed using 0.2 ml of 5 mM sodium phosphate (pH 6.0) containing 0.05 mM peptidyl-MCA substrate, 100 mM NaCl, 1 mM EDTA, 5 mM 2-mercaptoethanol, and 10 μl of the test fraction. The solution was incubated at 27° C. for 10 minutes, to which was added 0.2 ml of 20% aqueous solution of acetic acid to stop the reaction. Fluorescence at 380 nm and 460 nm was observed. The amount necessary for hydrolyzing 1 μmol substrate in 10 minutes under the above condition was defined as one unit of protease activity.
For purification of 26·29 kDa protease, carbobenzoxy-Arg-Arg-MCA was used as the substrate. Further, for determination of substrate specificity, various peptidyl-MCAs were used.

[2] = cited from earlier work
[3] = Assay of protease activity with fluorescent peptidyl-MCA substrates; type: biochemical; conditions: for Recovery of protease activity after treatment to restore activity: condition effective for recombinant human cathepsin L precursor, natural protease denatured first
[4] = substrate Suc-Ala-Ala-Pro-Phe-MCA
[5] = substrate Suc-Leu-Leu-Val-Tyr-MCA
[6] = substrate z-Arg-Arg-MCA, 1 unit hydrolyzes 1 μmol substrate in 10 minutes

## 26·29 kDa protease of flesh fly (Sarcophaga peregrina), isolated and purified from body fluid cells (enzyme)
Suc-Ala-Pro-Phe-MCA
  Activity (units/mg enzyme) (units/mg enzyme): 0.01
Boc-Val-Leu-Lys-MCA
  Activity (units/mg enzyme) (units/mg enzyme): 0.61
Suc-Leu-Leu-Val-Tyr-MCA
  Activity (units/mg enzyme) (units/mg enzyme): 0.03
Pyr-Gly-Arg-MCA
  Activity (units/mg enzyme) (units/mg enzyme): 0.03
Z-Phe-Arg-MCA
  Activity (units/mg enzyme) (units/mg enzyme): 2.25
Suc-Ala-Ala-Pro-Phe-MCA
  Activity (units/mg enzyme) (units/mg enzyme): 0.01
Boc-Phe-Ser-Arg-MCA
  Activity (units/mg enzyme) (units/mg enzyme): 0.15
Z-Arg-Arg-MCA
  Activity (units/mg enzyme) (units/mg enzyme): 4.29

## CC(C)C[C@H](NC(=O)[C@H]1O[C@@H]1C(=O)O)C(=O)NCCCCN=C(N)N [E64]
26·29 kDa protease
  Inhibition of protease activity: inhibited

## cathepsin B from flesh fly (enzyme)
Suc-Ala-Pro-Phe-MCA
  Activity (units/mg enzyme) (units/mg enzyme): 0.83
Suc-Leu-Leu-Val-Tyr-MCA
  Activity (units/mg enzyme) (units/mg enzyme): 18.7
Pyr-Gly-Arg-MCA
  Activity (units/mg enzyme) (units/mg enzyme): 0.29
Z-Phe-Arg-MCA
  Activity (units/mg enzyme) (units/mg enzyme): 20.6
Suc-Ala-Ala-Pro-Phe-MCA
  Activity (units/mg enzyme) (units/mg enzyme): 0.5
Z-Arg-Arg-MCA
  Activity (units/mg enzyme) (units/mg enzyme): 0.86

## cathepsin B: cathepsin B from flesh fly, comparison cysteine protease
[1]; substrate Pyr-Gly-Arg-MCA
  Activity (units/mg enzyme): 0.29 units/mg enzyme
[1]; [4]
  Activity (units/mg enzyme): 0.5 units/mg enzyme
[1]; substrate Suc-Ala-Pro-Phe-MCA
  Activity (units/mg enzyme): 0.83 units/mg enzyme
[1]; [5]
  Activity (units/mg enzyme): 18.7 units/mg enzyme
[1]
  Hydrolysis of Z-Arg-Arg-MCA (in words): scarcely hydrolyzes
[1]; [6]
  Activity (units/mg enzyme): 0.86 units/mg enzyme
[1]; substrate z-Phe-Arg-MCA
  Activity (units/mg enzyme): 20.6 units/mg enzyme
[2]; substrate Suc-Leu-Leu-Val-Tyr-MCA, Kurata et al. 1992
  Hydrolysis of Suc-Leu-Leu-Val-Tyr-MCA (in words, literature): hydrolyzes
[2]; substrate Z-Arg-Arg-MCA, Takahashi et al. 1993
  Hydrolysis of Z-Arg-Arg-MCA (in words, literature): can not hydrolyze

## cathepsin L from flesh fly (enzyme)
Suc-Leu-Leu-Val-Tyr-MCA
  Activity (units/mg enzyme) (units/mg enzyme): 0.04
Z-Phe-Arg-MCA
  Activity (units/mg enzyme) (units/mg enzyme): 180
Z-Arg-Arg-MCA
  Activity (units/mg enzyme) (units/mg enzyme): 0.17

## cathepsin L: cathepsin L from flesh fly, comparison cysteine protease
[1]; [5]
  Activity (units/mg enzyme): 0.04 units/mg enzyme
[1]
  Hydrolysis of Z-Arg-Arg-MCA (in words): practically does not hydrolyze
[1]; [6]
  Activity (units/mg enzyme): 0.17 units/mg enzyme
[1]; substrate z-Phe-Arg-MCA
  Activity (units/mg enzyme): 180 units/mg enzyme

B1: 26.multidot.29 kDa protease: bimolecular cysteine protease of 26 kDa and 29 kDa subunits, purified from body fluid cells of flesh fly (Sarcophaga peregrina) (protein)
chain 1: TNPPRWDPNYIVKGTLYIPYAEIAEPFYAWYDKNTRRSRIDYYGGMVKTYQLANEHPFGTSLKLAPITTKSELNKVTCLQLNGTSEDPVQVQAILPNAKDFKLIGTETFLGFNCDKFRLEETIGDKKNVYTLWVRYKKSPHYPASRMPIPVRYEMRGYNTLLGSHYDHYYLDYDSYDHDDIPNEVFELDDNMECMPFPGPGK
chain 2: NGGNLVRLSQQALIDCSWEYGNNGCDGGEDFRAYKWMMEMGGVPTEEEYGPYLGQDGYCHAKNVSLVAPITGFFNVTPNDPMALKIALLKHGPISVAIDASPKTFSFYSHGVYYEPTCKNGLDELDHAVLAVGYGTINGEDYWLVKNSWSTYWGNDGYILMSARKNNCGVMTMPTYVEM
[1]; substrate Boc-Phe-Ser-Arg-MCA
  Activity (units/mg enzyme): 0.15 units/mg enzyme
[1]; substrate Boc-Val-Leu-Lys-MCA
  Activity (units/mg enzyme): 0.61 units/mg enzyme
[1]; substrate Pyr-Gly-Arg-MCA
  Activity (units/mg enzyme): 0.03 units/mg enzyme
[1]; [4]
  Activity (units/mg enzyme): 0.01 units/mg enzyme
[1]; substrate Suc-Ala-Pro-Phe-MCA
  Activity (units/mg enzyme): 0.01 units/mg enzyme
[1]; [5]
  Activity (units/mg enzyme): 0.03 units/mg enzyme
[1]
  Hydrolysis of Z-Arg-Arg-MCA (in words): well hydrolyzes
[1]; substrate Z-Phe-Arg-MCA
  Hydrolysis of Z-Phe-Arg-MCA (in words): has also a hydrolyzing activity
[1]; [6]
  Activity (units/mg enzyme): 4.29 units/mg enzyme
[1]; substrate z-Phe-Arg-MCA
  Activity (units/mg enzyme): 2.25 units/mg enzyme
[3]
  Recovery of protease activity after treatment to restore activity: no positive effects

B2: recombinant homologue of 29 kDa subunit: recombinant protein of 29 kDa subunit expressed in E. coli, recovered as inclusion bodies (protein)
chain: B1 chain 2
[3]
  Recovery of protease activity after treatment to restore activity: could not recover its activity
[3]; homogenate or inclusion bodies from expressing E. coli cells
  Protease activity towards Z-Arg-Arg-MCA of recombinant protein expressed in E. coli: only as much as the control E. coli cells
